According to PMC11909739:

Target: KS3AT3 (homodimeric KS-AT didomain fragment of DEBS module 3)
Test: cryo-EM structure

percent of KS3AT3 homodimer particles with one ACP (% of particles): 50.3
percent of KS3AT3 homodimer particles with two ACPs (% of particles): 24.7
percent of KS3AT3 homodimer particles with zero ACPs (% of particles): 25
Substance: ACP3 (standalone acyl carrier protein of DEBS module 3), holo form (domain or fragment)
